In article PMC10899635, “Q586B2 is a crucial virulence factor during the early stages of Trypanosoma brucei infection that is conserved amongst trypanosomatids” (Nature Communications, 2024):

B1: Nb39 (VHH)
VHH: QVQLQESGGGLVQPGGSLRLSCTASGSIFSGYAMGWYRQAPGKQRELVAGITSGGSTIYAGSVKGRFTISRDNAKNTVYLQMNSLKPEDTAVYYCKNGTYYSARDYWGQGTQVTVSS
notes: nanobody from a llama immunized with recombinant Q586B2; A biotinylated Nb39 served as detecting agent in the sandwich ELISA; also called anti-Q586B2 Nb39; source: E. coli WK6, periplasmic extraction, purified (His-Trap IMAC, Superdex 75); not shown: HA, C-terminal, kept
B2: Nb41 (VHH)
VHH: QVQLQESGGGLVQAGGSLRLSCAASGRTFSSYAMGWFRQAPGKEREFIALISWIGGSTAYADSVKGRFTISRDNAKNTLYLQMNSLKPEDTAVYYCATDRIGRHRGPGTQVTVSS
B3: Nb53 (VHH)
VHH: QVQLQESGGGSVQAGGSLRLSCSASGYTYSSHCTAWFRQAPGKEREALAAINSRSGTTYYADSVKGRFTISQDNTKNTAYLQMNSLKPEDTATYFCAALSFGCTGPLASLGQGTQVTVSS
B4: Nb36 (VHH)
VHH: QVQLQESGGGLVQPGGSLRLSCAASGFAFSFYWMNWVRQAPGKGLEWVSAINSGGGSTYYADSVKGRFTISRDNAKNTLYLQMNSLKPEDTAVYYCAKGIVQRGEYYGMDYWGKGTQVTVSS
B5: Nb32 (VHH)
VHH: QVQLQESGGGLVQPGGSLRLSCAASGFTFSAYAMSWVRQAPGKGLEWVSTIDSGGGSTYYADSVKGRFTISRDNAKKTLYLHMNSLKPEDTAVYYCAKRGYSDYARHVWGQGTQVTVSS
B6: Nb34 (VHH)
VHH: QVQLQESGGGLVQPGGSLRLSCAASGFTFSNSPMNWVRQAPGKGLEWVSAINSGGGSTYYADSVKGRFTISRDNAKNTLYLQMNSLKPEDTAVYYCAKGGRTYYSGSYYSWGMDYWGKGTQVTVSS
B7: Nb58 (VHH)
VHH: QVQLQESGGGLVQPGGSLRLSCAASGRSISSIYAMGWYRQAPGKQRELVARLTSGGSSNYADSVKGRFTITRDNAQNTVYLQMNSLKPEDTAVYYCNAEPSRWWLDDDYWGQGTQVTVSS

target: T1, homologous protein in T. cruzi (Trypanosoma cruzi (assayed strain not …, UniProt Q4D6Q6)); test: flow cytometry on cells; 5 µg HA-tagged Nb on 100 µl of 10^7/ml purified, fixed and permeabilized parasites, on ice 30 min; detected with Alexa Fluor 488 labeled anti-HA IgG; conditions: one partner purified
T1 construct: protein of T. cruzi homologous to Q586B2, detected by Nb39; also called Q4D6Q6; source: endogenous, T. cruzi parasites, fixed and permeabilized

Row | Binder | binding result
1 | B1 | binds

target: T2, native Q586B2 (Trypanosoma brucei brucei AnTat1.1E and …, UniProt Q586B2); test: not given; conditions: not given

Row | Binder | binding result
2 | B2 | binds
3 | B3 | binds
4 | B4 | binds
5 | B5 | binds
6 | B6 | binds
7 | B7 | binds

Target: T3, recombinant Q586B2 protein (Trypanosoma brucei brucei)
T3 chain: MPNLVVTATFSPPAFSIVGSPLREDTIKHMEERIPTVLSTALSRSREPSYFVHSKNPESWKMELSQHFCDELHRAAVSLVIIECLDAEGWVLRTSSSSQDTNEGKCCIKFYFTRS
Test: not given
Conditions: not given

Row | Binder | binding result
8 | B2 | binds
9 | B3 | binds
10 | B4 | binds
11 | B5 | binds
12 | B6 | binds
13 | B7 | binds

target: T2, native Q586B2; test: ELISA; sandwich ELISA: Nb39 coated at 5 µg/ml in PBS; culture medium of in vitro cultured parasites or serum of infected mice (day 6 p.i., diluted 1/2), 2 h at 37 °C; detected with biotinylated Nb39 and streptavidin-HRP; conditions: one partner purified

Row | Binder | binding result
14 | B1 | binds
